# Results from patent publication US20260176659A1, “IMPROVED METHOD FOR THE PRODUCTION OF NATURAL VANILLIN” (BASE SE, priority 2022, published 2026).
# B1: IECO: isoeugenol cleavage oxygenase from Pseudomonas nitroreducens (GenBank: ACP17973), SEQ ID NO: 24 (protein, listed as Pseudomonas nitroreducens)
# chain: MARLNRNDPQLVGTLLPTRIEADLFDLEVDGEIPKSINGTFYRNTPEPQVTPQKFHTFIDGDGMASAFHFEDGHVDFISRWVKTARFTAERLARKSLFGMYRNPYTDDTSVKGLDRTVANTSIISHHGKVLAVKEDGLPYELDPRTLETRGRFDYDGQVTSQTHTAHPKYDPETGDLLFFGSAAKGEATPDMAYYIVDKHGKVTHETWFEQPYGAFMHDFAITRNWSIFPIMPATNSLSRLKAKQPIYMWEPELGSYIGVLPRRGQGSQIRWLKAPALWVFHVVNAWEVGTKIYIDLMESEILPFPFPNSQNQPFAPEKAVPRLTRWEIDLDSSSDEIKRTRLHDFFAEMPIMDFRFALQCNRYGFMGVDDPRKPLAHQQAEKIFAYNSLGIWDNHRGDYDLWYSGEASAAQEPAFVPRSPTAAEGDGYLLTVVGRLDENRSDLVILDTQDIQSGPVATIKLPFRLRAALHGCWVPRP
# Assays:
# Format in all cases: biochemical
# [1] = Spectrophotometric enzymatic assay: cleaving activity, production of vanillin from coniferyl alcohol at 349 nm; settings: freeze-dried cell free extract incl. buffer salts; vanillin from coniferyl alcohol
# Method: Stock solution 200× of coniferyl alcohol (90 mg) was prepared in ethanol (5 mL) and stored at −20° C. From this, a new stock solution 20× of coniferyl alcohol (10 mM) was freshly prepared by 1:10 dilution in Glycine-NaOH (50 mM, pH 9.0). A cuvette containing 0.750 mL Glycine-NaOH (50 mM, pH 9.0) and 0.05 mL of the substrate 20× stock was pre-warmed at 25° C. for 1.5 mins. Then, the reaction was initiated by the addition of 0.2 mL of the enzyme sample. The cleaving […] activity was measured spectrophotometrically following the production of vanillin at 349 nm (ε349=26.7 mM^−1cm^−1 experimentally determined). One unit of activity (U) is defined as the amount of enzyme required to produce 1 μmol of vanillin per min. Agilent Cary 60 UV-Vis Spectrophotometer was used for all the measurements.
# Searching for alternative novel alkene cleavage oxygenases (COs) catalysing the formation of vanillin from coniferyl alcohol was performed. A set of 27 sequences and 10 COs from different branches of the phylogenetic tree were selected, named CO-02-11. Two additional enzymes were included, which are located in different clusters of the phylogenetic tree: Lignostillbene dioxygenase from Pseudomonas brassicaceraum (PbLSD, PDB: 5V2D) and aromatic dioxygenase (Ado, CO-01) from Thermothelomyces thermophilus (GenBank ID: XP_003665585). The proteins were recombinantly expressed in E. coli BL21(DE3), following the same protocol developed for IECO. […] Putative COs were screened by spectrophotometric assay, monitoring the formation of 3a upon 2a cleavage. From a set of twelve COs, four positive hits, namely CO-01, CO-03, CO-06 and CO-07 were found. Positive variants were tested in the one pot cascade and compared them with IECO In agreement with the spectrophotometric screening, all four COs converted eugenol 1a to vanillin 3a (Table 8). The first step of the cascade is efficiently performed by EUGO, and the substrate is completely consumed. […] Overall, 70±3% conversion of 1a to vanillin 3a was achieved.
# [2] = Biotransformation of coniferyl alcohol to vanillin catalysed by IECO (5 mM); settings: 5 mM 2a; for Consumption of 2a / Conversion of 2a to 3a (%) / Conversion of 2a to 5a (%) / Reaction composition at 24 hours (%) 2a / Reaction composition at 24 hours (%) 3a / Reaction composition at 24 hours (%) 5a: pH 9.0
# Method: 180 mg of coniferyl alcohol were weighted and dissolved in 10 mL ethanol and stored at −20° C. (stock 100 mM). The reaction mixtures (0.5 mL) were set up in 1.5 mL glass vials as follows: […] (50 mM, pH 9.0) together with sodium ascorbate (1 mM), FeSO4 (1 mM) and bovine liver catalase (Sigma C40, 0-10 mg/mL). The reaction was initiated by the addition of coniferyl alcohol stock (0.025 mL, final concentration 5 mM), then it was incubated for 24 hours at 30° C. and 120 rpm (rotary shaker). Note that the reaction contained 5% v/v ethanol deriving from the substrate stock. To improve the oxygenation, the vials were placed horizontally. At certain time points, reaction samples were taken and quenched with methanol (2 vol. equivalents). The mixture was centrifuged for 5-10 mins at 20238 g. Then supernatant was finally transferred in a HPLC vial for analysis.
# [3] = Biotransformation of isoeugenol to vanillin: pH and solvent screening
# Method: Stock solution of rac-isoeugenol (100 mM) was prepared in DMSO and stored at 4° C. Each reaction mixtures (1 mL) were set up as follows: rac-isoeugenol (50 μL, final concentration 5 mM) was diluted in various buffers (100 mM, pH 7.0-10.5) in 4 mL glass vials, together with FeSO4 (0.5 mM) and DMSO (150 μL; final concentration including the part from substrate stock: 20% v/v). The reaction was initiated by the addition of IECO (cell free extract 1 mg/mL). Wild type E. coli BL21 (DE3) was used as negative control. The reaction was incubated for 24 hours at 30° C. and 120 rpm (rotary shaker). To improve the oxygenation, the vials were placed horizontally. The reaction was quenched with methanol (2 vol. equiv.), centrifuged at 20238 g for 5-10 mins and analysed by HPLC.
# Stock solutions of rac-isoeugenol (100 mM) were prepared in different solvents and stored in the dark at 4° C. Each reaction mixtures (1 mL) were set up as follows: ra-isoeugenol (50 μL, final concentration 5 mM) was diluted in Glycine-NaOH (100 mM, pH 9.5) in 4 mL glass vials, together with FeSO4 (0.5 mM) and the respective cosolvent (0, 50 or 150 μL; final content of cosolvent including the part from the substrate stock: 5, 10 and 20% v/v). The reaction was initiated by the addition of IECO (cell free extract 1 mg/mL). […] The reaction was quenched with methanol (2 vol. equiv.), centrifuged at 20238 g and analysed by HPLC.
# [4] = IECO CFE Fresh 1 mg/mL, 24 h, non-optimised
# [5] = IECO CFE Fresh 2 mg/mL, 24 h, non-optimised
# [6] = IECO CFE Stored at −20° 2 mg/mL, 24 h, non-optimised
# [7] = IECO CFE Stored at −20° C. 3 mg/mL, 24 h, non-optimised
# [8] = IECO fresh CFE 1 mg/mL, catalase 0 mg/mL
# [9] = IECO fresh CFE 1 mg/mL, catalase 2 mg/mL
# [10] = IECO fresh CFE 1 mg/mL, catalase 10 mg/mL
# [11] = IECO fresh CFE 2 mg/mL, catalase 0 mg/mL
# [12] = IECO fresh CFE 2 mg/mL, catalase 2 mg/mL
# [13] = IECO fresh CFE 2 mg/mL, catalase 10 mg/mL
# [14] = IECO fresh CFE 4 mg/mL, catalase 0 mg/mL
# [15] = IECO fresh CFE 4 mg/mL, catalase 2 mg/mL
# [16] = IECO fresh CFE 4 mg/mL, catalase 10 mg/mL
molecule,measurement,setting,value
B1,Specific Activity (mU/mg of FD-CFE),[1],2.8 mU/mg
same,vanillin afforded,"[2]; IECO 4 mg CFE/mL in the presence of catalase, 24 h",3.6 ± 0.6 mM
same,Consumption of 2a,[2]; [4],24%
same,Conversion of 2a to 3a (%),[2]; [4],9%
same,Consumption of 2a,[2]; [5],45%
same,Conversion of 2a to 3a (%),[2]; [5],17%
same,Consumption of 2a,[2]; [6],12%
same,Conversion of 2a to 3a (%),[2]; [6],4%
same,Conversion of 2a to 5a (%),[2]; [6],1%
same,Consumption of 2a,[2]; [7],18%
same,Conversion of 2a to 3a (%),[2]; [7],5%
same,Conversion of 2a to 5a (%),[2]; [7],13%
same,Reaction composition at 24 hours (%) 2a,[2]; [8],46 ± 3%
same,Reaction composition at 24 hours (%) 3a,[2]; [8],51 ± 3%
same,Reaction composition at 24 hours (%) 5a,[2]; [8],3 ± 1%
same,Conversion of 2a to 3a (%),"[2]; IECO fresh CFE 1 mg/mL, catalase 0 mg/mL, 24 h",38 ± 4%
same,Reaction composition at 24 hours (%) 2a,[2]; [9],41 ± 6%
same,Reaction composition at 24 hours (%) 3a,[2]; [9],58 ± 6%
same,Reaction composition at 24 hours (%) 5a,[2]; [9],1 ± 0.1%
same,Conversion of 2a to 3a (%),"[2]; IECO fresh CFE 1 mg/mL, catalase 2 mg/mL, 24 h",44 ± 5%
same,Reaction composition at 24 hours (%) 2a,[2]; [10],41 ± 3%
same,Reaction composition at 24 hours (%) 3a,[2]; [10],58 ± 1%
same,Reaction composition at 24 hours (%) 5a,[2]; [10],1 ± 0.1%
same,Conversion of 2a to 3a (%),"[2]; IECO fresh CFE 1 mg/mL, catalase 10 mg/mL, 24 h",45 ± 3%
same,Reaction composition at 24 hours (%) 2a,[2]; [11],25 ± 4%
same,Reaction composition at 24 hours (%) 3a,[2]; [11],71 ± 4%
same,Reaction composition at 24 hours (%) 5a,[2]; [11],5 ± 1%
same,Conversion of 2a to 3a (%),"[2]; IECO fresh CFE 2 mg/mL, catalase 0 mg/mL, 24 h",53 ± 3%
same,Reaction composition at 24 hours (%) 2a,[2]; [12],27 ± 3%
same,Reaction composition at 24 hours (%) 3a,[2]; [12],72 ± 3%
same,Reaction composition at 24 hours (%) 5a,[2]; [12],1 ± 0.3%
same,Conversion of 2a to 3a (%),"[2]; IECO fresh CFE 2 mg/mL, catalase 2 mg/mL, 24 h",58 ± 3%
same,Reaction composition at 24 hours (%) 2a,[2]; [13],22 ± 4%
same,Reaction composition at 24 hours (%) 3a,[2]; [13],77 ± 4%
same,Reaction composition at 24 hours (%) 5a,[2]; [13],1 ± 0.1%
same,Conversion of 2a to 3a (%),"[2]; IECO fresh CFE 2 mg/mL, catalase 10 mg/mL, 24 h",59±3%
same,Reaction composition at 24 hours (%) 2a,[2]; [14],9.1 ± 3%
same,Reaction composition at 24 hours (%) 3a,[2]; [14],82 ± 5%
same,Reaction composition at 24 hours (%) 5a,[2]; [14],9 ± 4%
same,Conversion of 2a to 3a (%),"[2]; IECO fresh CFE 4 mg/mL, catalase 0 mg/mL, 24 h",56 ± 10%
same,Reaction composition at 24 hours (%) 2a,[2]; [15],11 ± 3%
same,Reaction composition at 24 hours (%) 3a,[2]; [15],84 ± 5%
same,Reaction composition at 24 hours (%) 5a,[2]; [15],5 ± 4%
same,Conversion of 2a to 3a (%),"[2]; IECO fresh CFE 4 mg/mL, catalase 2 mg/mL, 24 h",62 ± 10%
same,Reaction composition at 24 hours (%) 2a,[2]; [16],13 ± 1%
same,Reaction composition at 24 hours (%) 3a,[2]; [16],86 ± 13%
same,Reaction composition at 24 hours (%) 5a,[2]; [16],1 ± 0.1%
same,pH optimum of activity toward isoeugenol,"[3]; rac-isoeugenol 5 mM, buffers pH 7.0-10.5",9.0
same,"cosolvent tolerance, activity toward isoeugenol","[3]; solvent screening 5, 10 and 20% v/v","tolerates a panel of cosolvents, with a preference for ethanol and DMSO"
